These results are taken from patent publication US20110014669A1, “Production of 1,4 Butanediol in a Microorganism” (Microbia, Inc., priority 2009, published 2011).

What all share (parameters): key: +: measureable activity detected in the assay; −: no measurable activity detected in the assay
Data set [1] relates to L-glutamate 5-semialdehyde (GSA). In words: Enzyme assay, oxidoreductase (step A3), cell lysates. As to conditions: BDO biosynthetic pathway step A3. It counts as biochemical. The protocol:
Enzyme expression and crude lysate preparation. The enzymatic activity of each candidate enzyme is evaluated, first in E. coli and subsequently in C. glutamicum. It will be apparent to one of skill in the art that the expression and lysate preparations may need to be modified depending on the host cell and recombinant gene of interest.
E. coli: E. coli strains transformed with expression clones, for example, pUC18 or MB4124 based clones having a medium strong constitutive promoter regulating the recombinant gene of interest, are grown aerobically in LB medium (Difco) containing the appropriate antibiotic(s). At an OD600 of 0.5, IPTG is added to a final concentration of 0.25 mM. The cultures are grown to a final OD600 of 1.5 at which time the cells are collected and harvested by centrifugation. Cell pellets are resuspended in BugBuster (Novagen) reagent containing benzonase and lysozyme. Alternatively, E. coli strains transformed with expression clones, are grown overnight aerobically at 37° C. in BHI containing the appropriate antibiotic(s). 300 μL of fresh overnight culture is used to inoculate 2.7 mL BHI containing 0.25 mM IPTG and the appropriate antibiotic. The cultures are grown aerobically for 4-5 hours at 37° C. at which time the cells are collected and harvested by centrifugation. Cell pellets are frozen at −80° C. for at least 15 minutes, then thawed and resuspended in BugBuster (Novagen) reagent. Lysis and lysate collection are performed according to the manufacturer's instructions and, for example, may involve use of a sonicator and/or French press. Cleared lysates are stored on ice until enzyme assays are performed.
C. glutamicum: C. glutamicum strains transformed with MB4124 expression clones containing the recombinant gene of interest are grown aerobically in BHI broth supplemented with the proper antibiotic(s). At an OD600 of 0.5, IPTG is added to a final concentration of 0.25 mM. The cultures are grown to a final OD600 of 1.5 at which time the cells are collected and harvested by centrifugation. The pellet is washed once in one volume of water and resuspended in lysis buffer (1.0 ml 1.0 M HEPES buffer, pH 7.5, 0.5 ml 1M KOH, 10 μl 0.5M EDTA, protease inhibitor cocktail, water to 5 ml; the final pH will vary depending on the individual enzyme being tested) and one volume of 0.1 mm acid washed glass beads. The mixture is repeatedly alternately vortexed and held on ice for 15 seconds, eight times. After centrifugation for 5 min at 4,000 rpm, the supernatant lysate is removed and respun for 20 min at 10,000 rpm. Alternatively, C. glutamicum strains transformed with MB4124 expression clones containing the recombinant gene of interest are grown aerobically overnight in BHI broth supplemented with the proper antibiotic(s). Five mL of fresh overnight culture is used to inoculate 200 mL BHI containing 0.25 mM IPTG and the appropriate antibiotic. The cultures are grown aerobically at 30° C. for 5-7 hours at which time the cells are collected and harvested by centrifugation at 4° C. The pellet is resuspended in 15 mL ice cold 39 mM KH2PO4, 61 mM K2HPO4, 0.5 M KCl and lysed using a BioSpec BeadBeater and following the manufacturer's instructions. […]
Protein Assays. Protein concentrations in lysates are determined according to the methods of Bradford et al. (Anal. Biochem. 72:248-254 [1976]) or by the method of Smith et al. (Anal. Biochem. 150(1):76-85 [1985]) and lysates are assayed according to the methods below. […]

Data set [2] shares this test system. Briefly: In vitro substrate conversion assay, step A3. It counts as biochemical. As to conditions: BDO biosynthetic pathway step A3. The protocol:
(§1) In Vitro Substrate Conversion. Most of the enzyme assays described above are based on recording changes in absorbance at a given wavelength. In addition to such spectrophotometric readouts, these assays can also be analyzed by more direct methods using an endpoint assay where the reaction is terminated after a given period of time and the mixture is analyzed via HPLC or LC-MS methods.
(§2) The aldehyde dehydrogenase linked reaction was used for step A5.

The test system is the same in data set [3]. Briefly: Bioconversion (feeding) assay, step A3. As to conditions: BDO biosynthetic pathway step A3. It counts as cell-based. The protocol:
(§3) Bioconversion assays. The activity of a candidate enzyme towards a given substrate can also be evaluated in vivo using a simple feeding assay. A strain expressing the candidate enzyme is grown in the presence of the substrate for which activity is desired. Samples of the culture are removed periodically and the cells are removed via centrifugation. The culture supernatant is then analyzed (e.g., by LC-MS) to determine how much of the substrate has been removed and how much of a given product is present.
as §2

Data set [4] relates to 5-hydroxy-2-oxopentanoate. In words: Enzyme assay, decarboxylase (step A5), aldehyde dehydrogenase linked reaction. It counts as biochemical. As to conditions: BDO biosynthetic pathway step A5. In short, it runs like this:
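Crude lysates of E. coli or C. glutamicum expressing the candidate decarboxylase (0.25 mM IPTG induction) were assayed against vector-only control lysates, using natural substrate and pathway metabolite. Decarboxylation was coupled to aldehyde dehydrogenase converting the aldehyde product to acid with NAD+ reduction, followed as absorbance increase at 340 nm.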

Data set [5] concerns 5-hydroxy-2-oxopentanoate. Briefly: In vitro substrate conversion assay, step A5. It counts as biochemical. As to conditions: BDO biosynthetic pathway step A5. Here is the method:
as §1, §2

For data set [6], the system named is 5-hydroxy-2-oxopentanoate. Briefly: Bioconversion (feeding) assay, step A5. In kind it is cell-based. As to conditions: BDO biosynthetic pathway step A5. Here is the method: as §3, §2

B1: NosEN: Enzyme candidate for BDO biosynthetic pathway step A3, SEQ ID NO. 16 (protein, listed as Nostoc sp.)
chain: MPLAAVMTAPNQPVEVQQLPDPILEKGGIILETLYSEVCGTDVHLLHGRLEGVPYPIIPGHFSVGRVVETGGAVSDVNGKLIQPGAIATFLDVHETCYNCWYCLVAKASTRCPQRKVYGVTYSAKDGLLGGWSELIYLKPGVKVLTLPEEVSPKQFIAGGCALPTALHAIDRAQIQIGDVVVVQGCGPVGLSAAILALLSGAGKVIVIDKFESRLVVAKSFGVDETLAIKADDPRQHIERVLELTNGHGADVTIEATGIPIAVKEGLNMTRNGGRYVIVGHYTNTGEILINPHLEINLKHIDIRGTWGIDFSHFYRMIELLKRHSDSSKNIAWSSIISRSYTLKEINQALADVEQGSVLKAVIQPNLS
Turning to B1, the “Enzyme Assay” value in data set [1] is on record as “−”. For the same molecule, the “In Vitro Substrate Conversion Assay” value in data set [2] is “+”. Besides, in data set [3], the “Bioconversion Assay” value was “+”.

B2: NosENp: nosE alcohol dehydrogenase from Nostoc punctiforme, step A3 enzyme candidate, SEQ ID NO. 18 (protein)
chain: MPLAAVMTAPNQPVEVQQLPEPILEKGGIIIETLYSEVCGTDVHLLHGRLEGVPYPIIPGHFSVGRVVETGGAVSDVNGKLIQPGAIATFLDVHETCYNCWYCLVAKASTRCPKRKVYGVTYSAKDGLLGGWSELIYLKPGVKVLTLPEEVSPKQFIAGGCALPTALHAIDRAQIQIGDVVVVQGCGPVGLSAAILALLSGAGKVIVIDKFESRLVVAKSFGVDETLAIRADDPRQHIERVLELTNGHGADVTIEATGIPIAVKEGLNMTRNGGRYVIVGHYTNTGEILINPHLEINLKHIDIRGTWGIDFSHFYRMIELLKRHSDSSKNIAWSSIISRSYTLKEINQALVDVEQGSVLKAVIQPNLS
modifications: Nostoc punctiforme
For the molecule B2, the “Enzyme Assay” value in data set [1] was “+”. For the same molecule, the “In Vitro Substrate Conversion Assay” value in data set [2] is reported as “+”. Moreover, in data set [3], the “Bioconversion Assay” value was “+”.

B3: NosEAv: Enzyme candidate for BDO biosynthetic pathway step A3, SEQ ID NO. 20 (protein, listed as Anabaena variabilis)
chain: MPKAAVMSAPNQPVVVQQLPDPILEKGGIIVETLYSEVCGTDVHLLHGRLEGVPYPIIPGHFSVGRVVETGGAVSDVNSNLIQPGAIATFLDVHETCYNCWYCLVAKASTRCPQRKVYGVTYSAKEGLLGGWSELIYLKPGVKVLTLPAEVSPKQFIAGGCALPTALHAIDRAQIQIGDVVVVQGCGPVGLSVAILALLSGAGKVIVIDKFESRLAVAKSFGVDETLAIKADDPRQHIERVLELTNGHGADVIIEATGIPIAVKEGLNMTRNGGRYVIVGHYTNTGEILINPHLEINLKHIDIRGTWGIDFSHFYRMIELLKRHSDPKKNIAWENLISRSYTLNEINQALTDVERGSVLKAVIQPNLS
As for B3, the “Enzyme Assay” value in data set [1] is reported as “−”. In addition, in data set [2], the “In Vitro Substrate Conversion Assay” value is given as “+”. Also, in data set [3], the “Bioconversion Assay” value was “+”.

B4: PdcBc: Enzyme candidate for BDO biosynthetic pathway step A5, SEQ ID NO. 42 (protein, listed as Bacillus cereus)
chain: MKKQYTVSTYLLDRLHELGIEHIFGVPGDYNLAFLDDVVAHENLKWIGNCNELNAAYAADGYARIKGIAALITTFGVGELSAINGIAGSYAENVPVIKITGTPPTKVMENGAIVHHTLGDGKFDHFSNMYREITVAQTNVTPEHAAEEIDRVLRACWNEKRPVHINLPIDVYNKPINKPTEPIINKPILSNKEALNKMLLHAISKINSAKKPVILADFEVDRFHAKENLHQFVEKTGFPIATLSMGKGIFPEKHPQFIGIYTGDVSSPYLRKRIDESDCIISIGVKLTDTITGGFTQGFTKEQVIEIHPYTVKIIDKKYGPVVMQDVLQHLSDSIEHRNKDTLDVKPFILESSPFTEEFIPKAQMVTQKRFWQQMYHFLQENDVLIVEQGTPFFGSSAIPLPNNTAYVGQPLWGSIGYTLPALLGTQLANLSRRNILIIGDGSFQVTAQELSTILRQNLKPIIFLINNNGYTVERAIHGQNQLYNDIQMWDYNKLSMVFGAEEKSLTFKVENEAELAAVLTNITFNKNQLIFIEVIMSQSDQPELLAKLGKRSGQQNS
As for B4, the “Enzyme Assay” value in data set [4] is reported as “−”. Also, the “In Vitro Substrate Conversion Assay” value in data set [5] was “−”. Besides, the “Bioconversion Assay” value in data set [6] was “−”.

B5: PdcZm: Enzyme candidate for BDO biosynthetic pathway step A5, SEQ ID NO. 38 (protein, listed as Zymomonas mobilis)
chain: MSYTVGTYLAERLVQIGLKHHFAVAGDYNLVLLDNLLLNKNMEQVYCCNELNCGFSAEGYARAKGAAAAVVTYSVGALSAFDAIGGAYAENLPVILISGAPNNNDHAAGHVLHHALGKTDYHYQLEMAKNITAAAEAIYTPEEAPAKIDHVIKTALREKKPVYLEIACNIASMPCAAPGPASALFNDEASDEASLNAAVEETLKFIANRDKVAVLVGSKLRAAGAEEAAVKFADALGGAVATMAAAKSFFPEENPHYIGTSWGEVSYPGVEKTMKEADAVIALAPVFNDYSTTGWTDIPDPKKLVLAEPRSVVVNGIRFPSVHLKDYLTRLAQKVSKKTGALDFFKSLNAGELKKAAPADPSAPLVNAEIARQVEALLTPNTTVIAETGDSWFNAQRMKLPNGARVEYEMQWGHIGWSVPAAFGYAVGAPERRNILMVGDGSFQLTAQEVAQMVRLKLPVIIFLINNYGYTIEVMIHDGPYNNIKNWDYAGLMEVFNGNGGYDSGAGKGLKAKTGGELAEAIKVALANTDGPTLIECFIGREDCTEELVKWGKRVAAANSRKPVNKLL
Consider B5, for which the “Enzyme Assay” value in data set [4] is “−”. The “In Vitro Substrate Conversion Assay” value in data set [5] is listed as “−”. Further, the “Bioconversion Assay” value in data set [6] is reported as “−”.

B6: PdcSs: Enzyme candidate for BDO biosynthetic pathway step A5, SEQ ID NO. 41 (protein, listed as Staphylococcus saprophyticus)
chain: MKKRVGQYLMDCISDVGVDKVFGVPGDFNLTFLDDIISRDDMEWIGNTNELNASYAADGYARMKGIAAMVTTFGVGELSAVNGIAGSYAERVPVIQITGAPTRAVESAGKYVHHSLGEGNFDDYRNMYASITTAQAYITPENAQSEIPRVINAALYEKRPVHIHLPIDVANSEIDVATPFEIEQRPQTDVTKYMTMVKDKLQSADKPVIITGHEINSFKLHEKLEQFVKQSQIPVVQLSLGKGAFNETSPYYMGIYDASLAEEDIRNYVDQSDAILNIGAKLTDSATAGYSYQFDIDDVVMINHHHFKMNETKDTEVSLVDLLDGLNAINYVNNAEFPKFKQPKAHDYDLTDEPLTQETYFKMMQDFIREEDVILAEQGTSFFGAYDLALKHNNKFIGQPLWGSIGYTLPATLGTQMADTSRRNLLLIGDGSLQLTVQEISTMIREKIKPIIFVINNDGYTVERKIHGENAMYNDIKMWDYKLLPTVFGGKDEVQVHDVNTSEAFQKVLLQIEAQPDTMHFIEVKMGVHDAPHKLNAIGQAFAKQNG
Take B6: the “Enzyme Assay” value in data set [4] is “−”. Further, in data set [5], the “In Vitro Substrate Conversion Assay” value is on record as “−”. Further, the “Bioconversion Assay” value in data set [6] is listed as “−”.
